This is an account of results in patent US20240052039A1.

The target of this assay is recombinant α4β1 integrin (R&D Systems) (UniProt P13612). Briefly: ELISA, recombinant α4β1 immobilised; reference is the anti-VLA-4 scFv. (In general: In an ELISA, binding on a coated surface is turned into a signal by an enzyme label.)

As to Fab of Natalizumab, the fold ELISA signal against scFv was 10 times.
